Experimental data taken from paper doi:10.1101/177840.

Molecular target: His-tagged full-length Ajuba (UniProt Q96IF1)
Assay: pull-down

Chain of RPA70-OB½ABC, aa 234-612 (P27694 234-612): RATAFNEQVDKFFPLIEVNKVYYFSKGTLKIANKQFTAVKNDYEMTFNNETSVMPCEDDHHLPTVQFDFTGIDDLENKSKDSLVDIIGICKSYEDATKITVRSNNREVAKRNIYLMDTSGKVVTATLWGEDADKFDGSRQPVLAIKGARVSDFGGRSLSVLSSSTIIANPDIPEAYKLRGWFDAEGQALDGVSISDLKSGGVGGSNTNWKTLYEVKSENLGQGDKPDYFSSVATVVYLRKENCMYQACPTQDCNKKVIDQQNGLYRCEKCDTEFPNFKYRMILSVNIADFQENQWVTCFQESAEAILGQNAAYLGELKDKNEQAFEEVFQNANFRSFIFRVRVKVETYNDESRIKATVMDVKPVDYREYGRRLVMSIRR

Substance “RPA70-OB½ABC, aa 234-612 (from UniProt P27694 234-612) (domain or fragment)” has a pull down relative to full-length RPA70 (100%) of 58.7%.
